Columns and labels:
Test in all cases: cell-based or functional assay
[1] = target: HIV-1 strain ZM109F.PB4 envelope (gp120) (HIV-1)
[2] = target: HIV-1 strain CNE20 envelope (gp120) (HIV-1)
[3] = target: HIV-1 strain P0402_c2_11 envelope (gp120) (HIV-1)
[4] = target: HIV-1 strain ZM249M.PL1 envelope (gp120) (HIV-1)
[5] = target: HIV-1 Env of strain SC422661.8 (HIV-1)
[6] = target: HIV-1 Env of strain WITO4160.33 (HIV-1)
[7] = target: HIV-1 Env of strain C2101.c01 (HIV-1)
[8] = target: HIV-1 Env of strain Q461.e2 (HIV-1)
[9] = target: HIV-1 Env of strain TRO.11 (HIV-1)
[10] = target: HIV-1 strain ZM197M.PB7 envelope (gp120) (HIV-1)
[11] = target: HIV-1 strain ZM53M.PB12 envelope (gp120) (HIV-1)
[12] = target: HIV-1 Env of strain 3016.v5.c45 (HIV-1)
[13] = target: HIV-1 Env of strain 6480.v4.c25 (HIV-1)
[14] = target: HIV-1 strain SC422661.8 envelope (gp120) (HIV-1)
[15] = target: HIV-1 strain Q842.d12 envelope (gp120) (HIV-1)
[16] = target: HIV-1 strain CAAN5342.A2 envelope (gp120) (HIV-1)
[17] = target: HIV-1 Env of strain HIV-16845-2.22 (HIV-1)
[18] = target: HIV-1 Env of strain Ce2060_G9 (HIV-1)
[19] = target: HIV-1 Env of strain C1080.c03 (HIV-1)
[20] = target: HIV-1 Env of strain 3817.v2.c59 (HIV-1)
[21] = target: HIV-1 Env of strain Q259.d2.17 (HIV-1)
[22] = target: HIV-1 Env of strain X1254_c3 (HIV-1)
[23] = target: HIV-1 Env of strain 1006_11_C3_1601 (HIV-1)
[24] = target: HIV-1 Env of strain ZM249M.PL1 (HIV-1)
[25] = target: HIV-1 strain ZM135M.PL10a envelope (gp120) (HIV-1)
[26] = target: HIV-1 strain ZM233M.PB6 envelope (gp120) (HIV-1)
[27] = target: HIV-1 Env of strain 6535.3 (HIV-1)
[28] = target: HIV-1 strain 3103.v3.c10 envelope (gp120) (HIV-1)
[29] = target: HIV-1 Env of strain T251-18 (HIV-1)
[30] = target: HIV-1 strain R1166.c01 envelope (gp120) (HIV-1)
[31] = target: HIV-1 strain CNE30 envelope (gp120) (HIV-1)
[32] = target: HIV-1 strain WEAU_d15_410_787 envelope (gp120) (HIV-1)
[33] = target: HIV-1 Env of strain ZM197M.PB7 (HIV-1)
[34] = target: HIV-1 strain Ce2010_F5 envelope (gp120) (HIV-1)
[35] = target: HIV-1 strain 211-9 envelope (gp120) (HIV-1)
[36] = target: HIV-1 strain Ce0682_E4 envelope (gp120) (HIV-1)
[37] = target: HIV-1 strain CAP210.2.00.E8 envelope (gp120) (HIV-1)
[38] = target: HIV-1 strain 703357.C02 envelope (gp120) (HIV-1)
[39] = target: HIV-1 Env of strain T257-31 (HIV-1)
[40] = target: HIV-1 strain 1006_11_C3_1601 envelope (gp120) (HIV-1)
[41] = target: HIV-1 strain T250-4 envelope (gp120) (HIV-1)
[42] = target: HIV-1 Env of strain 62357_14_D3_4589 (HIV-1)
[43] = target: HIV-1 strain Ce2060_G9 envelope (gp120) (HIV-1)
[44] = target: HIV-1 strain X1193_c1 envelope (gp120) (HIV-1)
[45] = target: HIV-1 Env of strain 211-9 (HIV-1)
[46] = target: HIV-1 strain HIV-16845-2.22 envelope (gp120) (HIV-1)
[47] = target: HIV-1 Env of strain 1054_07_TC4_1499 (HIV-1)
[48] = target: HIV-1 strain X2131_C1_B5 envelope (gp120) (HIV-1)
[49] = target: HIV-1 strain AC10.0.29 envelope (gp120) (HIV-1)

B1: NIH45-46^G54W IgG (antibody, name in Kabat numbering, V domains shown)
VH: QVRLSQSGGQMKKPGESMRLSCRASGYEFLNCPINWIRLAPGRRPEWMGWLKPRWGAVNYARKFQGRVTMTRDVYSDTAFLELRSLTSDDTAVYFCTRGKYCTARDYYNWDFEHWGRGAPVTVSS
VL: EIVLTQSPATLSLSPGETAIISCRTSQSGSLAWYQQRPGQAPRLVIYSGSTRAAGIPDRFSGSRWGADYNLSISNLESGDFGVYYCQQYEFFGQGTKVQVDI
neutralization IC80 [1]: 0.07 µg/mL
neutralization IC80 [2]: 0.48 µg/mL
neutralization IC80 [3]: 0.023 µg/mL
neutralization IC80 [4]: 0.007 µg/mL
neutralization IC50 [5]: 0.02 µg/mL
neutralization IC50 [6]: 0.01 µg/mL
neutralization IC50 [7]: 0.04 µg/mL
neutralization IC50 [8]: 0.009 µg/mL
neutralization IC50 [9]: 0.04 µg/mL
neutralization IC80 [10]: 0.18 µg/mL
neutralization IC80 [11]: 0.16 µg/mL
neutralization IC50 [12]: 1.47 µg/mL
neutralization IC50 [13]: 0.004 µg/mL
neutralization IC80 [14]: 0.07 µg/mL
neutralization IC80 [15]: 0.025 µg/mL
neutralization IC80 [16]: 0.21 µg/mL
neutralization IC50 [17]: 0.45 µg/mL
neutralization IC50 [18]: 0.005 µg/mL
neutralization IC50 [19]: 0.2 µg/mL
neutralization IC50 [20]: > 50 µg/mL
neutralization IC50 [21]: < 0.001 µg/mL
neutralization IC50 [22]: 0.002 µg/mL
neutralization IC50 [23]: < 0.001 µg/mL
neutralization IC50 [24]: 0.002 µg/mL
neutralization IC80 [25]: 0.16 µg/mL
neutralization IC80 [26]: 0.11 µg/mL
neutralization IC50 [27]: 0.03 µg/mL
neutralization IC80 [28]: 0.56 µg/mL
neutralization IC50 [29]: 0.26 µg/mL
neutralization IC80 [30]: 0.51 µg/mL
neutralization IC80 [31]: 0.196 µg/mL
neutralization IC80 [32]: 0.003 µg/mL
neutralization IC50 [33]: 0.04 µg/mL
neutralization IC80 [34]: 0.187 µg/mL
neutralization IC80 [35]: > 50 µg/mL
neutralization IC80 [36]: 0.039 µg/mL
neutralization IC80 [37]: > 50 µg/mL
neutralization IC80 [38]: 17.6 µg/mL
neutralization IC50 [39]: 0.13 µg/mL
neutralization IC80 [40]: 0.008 µg/mL
neutralization IC80 [41]: 44.9 µg/mL
neutralization IC50 [42]: 0.02 µg/mL
neutralization IC80 [43]: 0.042 µg/mL
neutralization IC80 [44]: 0.009 µg/mL
neutralization IC50 [45]: 16.4 µg/mL
neutralization IC80 [46]: 2.1 µg/mL
neutralization IC50 [47]: 0.04 µg/mL
neutralization IC80 [48]: 0.24 µg/mL
neutralization IC80 [49]: 0.63 µg/mL

B2: NIH45-46^G54F IgG (antibody, name in Kabat numbering, V domains shown)
VH: QVRLSQSGGQMKKPGESMRLSCRASGYEFLNCPINWIRLAPGRRPEWMGWLKPRFGAVNYARKFQGRVTMTRDVYSDTAFLELRSLTSDDTAVYFCTRGKYCTARDYYNWDFEHWGRGAPVTVSS
VL: EIVLTQSPATLSLSPGETAIISCRTSQSGSLAWYQQRPGQAPRLVIYSGSTRAAGIPDRFSGSRWGADYNLSISNLESGDFGVYYCQQYEFFGQGTKVQVDI
neutralization IC80 [1]: 0.17 µg/mL
neutralization IC80 [2]: 3.91 µg/mL
neutralization IC80 [3]: 0.047 µg/mL
neutralization IC80 [4]: 0.016 µg/mL
neutralization IC50 [5]: 0.04 µg/mL
neutralization IC50 [6]: 0.02 µg/mL
neutralization IC50 [7]: 0.11 µg/mL
neutralization IC50 [8]: 0.03 µg/mL
neutralization IC50 [9]: 0.11 µg/mL
neutralization IC80 [10]: 0.23 µg/mL
neutralization IC80 [11]: 0.23 µg/mL
neutralization IC50 [12]: 5.82 µg/mL
neutralization IC50 [13]: 0.014 µg/mL
neutralization IC80 [14]: 0.1 µg/mL
neutralization IC80 [15]: 0.039 µg/mL
neutralization IC80 [16]: 0.28 µg/mL
neutralization IC50 [17]: 0.59 µg/mL
neutralization IC50 [18]: 0.022 µg/mL
neutralization IC50 [19]: 0.36 µg/mL
neutralization IC50 [20]: > 50 µg/mL
neutralization IC50 [21]: 0.009 µg/mL
neutralization IC50 [22]: 0.011 µg/mL
neutralization IC50 [23]: 0.003 µg/mL
neutralization IC50 [24]: 0.004 µg/mL
neutralization IC80 [25]: 0.43 µg/mL
neutralization IC80 [26]: 0.99 µg/mL
neutralization IC50 [27]: 0.07 µg/mL
neutralization IC80 [28]: 1.28 µg/mL
neutralization IC50 [29]: 0.41 µg/mL
neutralization IC80 [30]: 1.32 µg/mL
neutralization IC80 [31]: 0.348 µg/mL
neutralization IC80 [32]: 0.004 µg/mL
neutralization IC50 [33]: 0.09 µg/mL
neutralization IC80 [34]: 0.186 µg/mL
neutralization IC80 [35]: > 50 µg/mL
neutralization IC80 [36]: 0.056 µg/mL
neutralization IC80 [37]: > 50 µg/mL
neutralization IC80 [38]: > 50 µg/mL
neutralization IC50 [39]: 0.17 µg/mL
neutralization IC80 [40]: 0.024 µg/mL
neutralization IC80 [41]: > 50 µg/mL
neutralization IC50 [42]: 0.04 µg/mL
neutralization IC80 [43]: 0.085 µg/mL
neutralization IC80 [44]: 0.026 µg/mL
neutralization IC50 [45]: > 50 µg/mL
neutralization IC80 [46]: 2.75 µg/mL
neutralization IC50 [47]: 0.076 µg/mL
neutralization IC80 [48]: 0.41 µg/mL
neutralization IC80 [49]: 1.12 µg/mL

Reference: patent US20130209454A1
